Laboratory results: patent US20250145973, “CONDITIONED DNA MODIFYING ENZYME COMPRISING HETEROLOGOUS DNA BINDING DOMAIN” (Technische Universität Dresden Körperschaft des …, published 2025)

Biological target: Brec1-Zif268 (aa278) Rmut (synthetic)
Assay: cell_activity; 100 ug/ml L-arabinose, E. coli
Conditions: tags: G-to-R in right linker

Sequence of Brec1-Zif268 (aa278) Rmut (synthetic) (chain, as listed by the source): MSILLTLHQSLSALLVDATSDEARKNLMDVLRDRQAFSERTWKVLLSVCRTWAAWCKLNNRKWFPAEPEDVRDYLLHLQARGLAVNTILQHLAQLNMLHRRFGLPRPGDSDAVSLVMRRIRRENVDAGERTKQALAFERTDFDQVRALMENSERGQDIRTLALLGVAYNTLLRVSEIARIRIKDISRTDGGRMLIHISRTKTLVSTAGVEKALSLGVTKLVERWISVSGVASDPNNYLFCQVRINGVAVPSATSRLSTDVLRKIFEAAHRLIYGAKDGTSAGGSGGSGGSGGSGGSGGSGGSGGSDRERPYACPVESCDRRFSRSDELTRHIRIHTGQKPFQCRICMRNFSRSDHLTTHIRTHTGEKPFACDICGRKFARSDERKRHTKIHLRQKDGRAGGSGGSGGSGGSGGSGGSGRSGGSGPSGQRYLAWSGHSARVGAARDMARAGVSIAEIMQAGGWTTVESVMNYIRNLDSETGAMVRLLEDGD

B1: loxBTR-5-zif (A) (dsDNA)
DNA 1: AGCGTGGGCGTACTGAACCCACTGCTTAAGCCTCAATAAAGCTTGCCTTCAGTACGCCCACGCT
DNA 2: AGCGTGGGCGTACTGAAGGCAAGCTTTATTGAGGCTTAAGCAGTGGGTTCAGTACGCCCACGCT
  binding signal: 2.5 fold vs Brec1-Zif268
